Numbering of substitutions follows the chain as printed. Each block holds one binder with its values, some of them ahead of it.
Assays:
[1] = molecular target: T1, human PVRIG-his (AcroBiosystems, Cat NO. PVG-H52H4) (human, UniProt Q6DKI7 41-171, limits assumed); test: SPR (BIAcore), antibody captured on Protein A chip, human PVRIG-His analyte
T1 construct: also called human PVRIG protein
T1 sequence (looked up): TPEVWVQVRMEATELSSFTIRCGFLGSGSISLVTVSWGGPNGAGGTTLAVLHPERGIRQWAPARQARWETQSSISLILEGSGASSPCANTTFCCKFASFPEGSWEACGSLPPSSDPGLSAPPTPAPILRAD
Procedure: Biacore was used to detect the specific binding between anti-PVRIG antibody and human PVRIG protein. Protein A chip was used in the BIAcore assay. The time required for the chip to capture the diluted antibody and saturate the binding antigen to reach Rₘₐₓ (Maximum binding capacity, 50 RU) was measured by manual run. […] The affinity of antibody for antigen was measured by multi-cycle kinetics. In each cycle, the antibodies were injected prior to the injection of gradient concentraions of PVRIG proteins allowing the occurrence of antibody-antigen association and dissociation After each cycle, the Protein A chip was regenerated by Glycine, pH 1.5 (to remove the proteins on the chip). The affinity of antibody for antigen was calculated by BIAcore T200 analysis software.
The methods refer to Example 10.

[2] = molecular target: T1, human PVRIG-his (AcroBiosystems, Cat …); test: competition ELISA, PVRIG-His coated, competitor human PVRL2-mFc; set-up: AUC: unit not given here
Procedure: The ELISA plate was pre-coated with 100 μL/well of 0.5 μg/mL human PVRIG-his protein (AcroBiosystems, Cat NO. PVG-H52H4). The tested anti-PVRIG antibodies were diluted from the highest concentration of 16 nM (two-fold concentration). The diluted antibodies were mixed with 18 ng/ml human PVRL2-mFc (AcroBiosystems, Cat NO. CD2-H5257) in equal volume, added into the plate (100 μL/well), and incubated with shaking at room temperature for 2.0 hours. […] A HRP substrate, TMB (Thermo, Cat NO. 34029) was added into wells after washing the plate again for color development. After adding a termination solution to terminate the reaction, the absorbance value was read by a microplate reader (MD i3×). An inhibiting curve was drawn with concentration of antibodies as the abscissa and the corresponding OD value as the ordinate. The IC50 value was calculated by using a Four Parameter Logistic Fit (GraphPadPrism9). The smaller the IC50 value, the stronger the ability of the antibodies inhibits the binding between PVRIG and PVRL2. The positive and negative controls are the same as in Example 8.
The methods refer to Example 11. The inhibiting activity of the humanized antibodies was normalized to the corresponding parental antibodies. If the percentage value is higher than 100%, the inhibiting effect of humanized antibodies is better than that of parental antibodies.

[3] = molecular target: T1, human PVRIG-his (AcroBiosystems, Cat …); test: ELISA, antigen coated
Procedure: (§1) The ELISA plate was pre-coated with 100 μL/well of 0.5 μg/mL human PVRIG-his (AcroBiosystems, Cat NO. PVG-H52H4) or cynomolgus monkey PVRIG (Novoprotein, Cat NO. C09B). The tested anti-PVRIG humanized antibodies were serially diluted (initial concentration 3 nM, 3-fold serial dilution), added into the plate (100 μL/well) and incubated with shaking at room temperature for 1.5 hours. […] A HRP substrate, TMB (Thermo, Cat NO. 34029) was added into wells after washing the plate again for color development. After adding a termination solution to terminate the reaction, the absorbance value was read by a microplate reader (MD i3×). An antibody binding curve was drawn with concentration of antibodies as the abscissa and the corresponding OD value as the ordinate. The EC50 value was calculated by using a Four Parameter Logistic Fit (GraphPadPrism9). The smaller the EC50 value, the stronger the ability of the antibodies binds to human or cynomolgus monkey PVRIG. The binding effect of the humanized antibodies was normalized to the corresponding parental antibodies. If the percentage value is higher than 100%, the binding effect of humanized antibodies is better than that of parental antibody.

[4] = molecular target: T2, cynomolgus monkey PVRIG (Novoprotein, Cat NO. C09B) (cynomolgus monkey, UniProt A0A2K5WVV8 41-171); test: ELISA, antigen coated
T2 construct: also called cynomolgus monkey PVRIG protein
T2 sequence: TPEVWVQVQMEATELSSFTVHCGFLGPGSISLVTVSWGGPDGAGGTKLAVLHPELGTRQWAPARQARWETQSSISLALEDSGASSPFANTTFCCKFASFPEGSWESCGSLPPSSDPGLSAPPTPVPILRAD
Procedure: as §1

B2: PVRIG-A50 (Fc fusion)
chain: EVQLVESGGGLVQPGGSLRLSCAASGFTFSYYDMSWVRQAPGKGLEWVSTINSNGGRTSYVDSVKGRFTISRDNTKNTLYLQMNSLKPEDTAVYYCVEGDPHNFGLENLSLRDFGSWGQGTQVTVSS
notes: heavy chain antibody VHH-hinge-CH2-CH3, human IgG1 constant part; also called PVRIG-50; not shown: human IgG1 hinge-CH2-CH3
Kd [1]: 0.043 nM
koff [1]: 1.9e-05 s⁻¹
kon [1]: 443000 M⁻¹ s⁻¹

B3: PVRIG-A50-H1c (Fc fusion)
chain: B2 chain with N54D, T75S, K87R, P88A, S110A, Q122M
notes: humanized variant of PVRIG-A50; also called A50.VH1c; not shown: constant part not restated for the humanized forms; parents are VHH-hinge-CH2-CH3 of human IgG1; detected by anti-human
% relative activity (AUC) parental antibody/test antibody [2]: 76.3%
% relative activity (IC50) parental antibody/test antibody [2]: 65.9%
AUC [2]: 2.62
IC50 [2]: 1.18 nM
% relative activity parental antibody/tested antibody [3]: 87.3%
EC50 [3]: 0.105 nM
% relative activity parental antibody/tested antibody [4]: 69.5%
EC50 [4]: 0.177 nM
Kd [1]: 0.0462 nM
koff [1]: 2.03e-05 s⁻¹
kon [1]: 438000 M⁻¹ s⁻¹

B4: PVRIG-A50-H1e (Fc fusion)
chain: B2 chain with G55A, T75S, K87R, P88A, N108S, Q122M
notes: humanized variant of PVRIG-A50; also called VH1e; not shown: constant part not restated for the humanized forms; parents are VHH-hinge-CH2-CH3 of human IgG1; detected by anti-human
% relative activity (AUC) parental antibody/test antibody [2]: 86.2%
% relative activity (IC50) parental antibody/test antibody [2]: 79.5%
AUC [2]: 2.32
IC50 [2]: 0.977 nM
% relative activity parental antibody/tested antibody [3]: 116%
EC50 [3]: 0.0791 nM
% relative activity parental antibody/tested antibody [4]: 89.5%
EC50 [4]: 0.138 nM
Kd [1]: 0.0551 nM
koff [1]: 1.46e-05 s⁻¹
kon [1]: 265000 M⁻¹ s⁻¹

B5: PVRIG-A50-H1b (Fc fusion)
chain: B2 chain with N54D, T75S, K87R, P88A, N108S, Q122M
notes: humanized variant of PVRIG-A50; also called A50.VH1b; not shown: constant part not restated for the humanized forms; parents are VHH-hinge-CH2-CH3 of human IgG1; detected by anti-human
% relative activity (AUC) parental antibody/test antibody [2]: 105%
% relative activity (IC50) parental antibody/test antibody [2]: 125%
AUC [2]: 2
IC50 [2]: 0.847 nM
% relative activity parental antibody/tested antibody [3]: 111%
EC50 [3]: 0.0819 nM
% relative activity parental antibody/tested antibody [4]: 75.8%
EC50 [4]: 0.161 nM
Kd [1]: 0.0804 nM
koff [1]: 2.82e-05 s⁻¹
kon [1]: 350000 M⁻¹ s⁻¹

B6: PVRIG-A50-H1a (Fc fusion)
chain: B2 chain with N54D, T75S, K87R, P88A, Q122M
notes: humanized variant of PVRIG-A50; also called A50.VH1a; not shown: constant part not restated for the humanized forms; parents are VHH-hinge-CH2-CH3 of human IgG1; detected by anti-human
% relative activity (AUC) parental antibody/test antibody [2]: 82.5%
% relative activity (IC50) parental antibody/test antibody [2]: 73%
AUC [2]: 2.43
IC50 [2]: 1.06 nM
% relative activity parental antibody/tested antibody [3]: 92.4%
EC50 [3]: 0.099 nM
% relative activity parental antibody/tested antibody [4]: 66.4%
EC50 [4]: 0.185 nM
Kd [1]: 0.0451 nM
koff [1]: 1.92e-05 s⁻¹
kon [1]: 425000 M⁻¹ s⁻¹

More lines, now with the values ahead:

Kd [1]: 0.483 nM
koff [1]: 0.00102 s⁻¹
kon [1]: 2.12e+06 M⁻¹ s⁻¹
B1: PVRIG-A118 (Fc fusion)
chain: QVQLVESGGGLVQAGGSLRLSCAASETYFDLYVMGWYRQAPGKDRELVATITYTGSIKIVDSVKDRFTISRGDAKNTVSLQMSSLKPEDTAVYFCNADPSGLGRKVYWGQGTQVTVSS
notes: heavy chain antibody VHH-hinge-CH2-CH3, human IgG1 constant part; not shown: human IgG1 hinge-CH2-CH3

% relative activity (AUC) parental antibody/test antibody [2]: 86.4%
% relative activity (IC50) parental antibody/test antibody [2]: 85.3%
AUC [2]: 2.32
IC50 [2]: 0.911 nM
% relative activity parental antibody/tested antibody [3]: 140%
EC50 [3]: 0.0655 nM
% relative activity parental antibody/tested antibody [4]: 68.3%
EC50 [4]: 0.18 nM
Kd [1]: 0.0585 nM
koff [1]: 1.61e-05 s⁻¹
kon [1]: 276000 M⁻¹ s⁻¹
B7: PVRIG-A50-H2a (Fc fusion)
chain: B2 chain with G55A, K87R, P88A, N108S, Q122M
notes: humanized variant of PVRIG-A50; also called A50.VH2a; not shown: constant part not restated for the humanized forms; parents are VHH-hinge-CH2-CH3 of human IgG1; detected by anti-human

Kd [1]: 0.675 nM
koff [1]: 0.000486 s⁻¹
kon [1]: 721000 M⁻¹ s⁻¹
B8: PVRIG-A105 (Fc fusion)
chain: EVQLVESGGGLVQAGGSLRLSCAASGRTFDRHTMTWFRQAPGKEREFVATASRIPGDTYYSHSVKGRFTISRDNAKNTVYLQLNNLKPEDTAVYYCAATSAYCSEVDCYEKGSWYDNWGQGIQVTVSS
notes: as for B1

From US20240343803A1 (SHANDONG SIMCERE BIOPHARMACEUTICAL, published 2024)
